{
  "source": "patent US20230406909A1",
  "about": "(ROCHE DIAGNOSTICS OPERATIONS, published 2023)",
  "key": {"[1]": {"target": "T1, SlyD-SlyD-tagged nucleocapsid full-length protein (EcSlyD-EcSlyD-CoV-2-N(1-419)) (SARS-CoV-2)"}, "[2]": {"target": "T1, SlyD-SlyD-tagged nucleocapsid …", "remark": "listed apart in the source"}, "[3]": {"target": "T1, SlyD-SlyD-tagged nucleocapsid …", "assay": "SPR (Biacore), captured antibody, NCP analyte, Langmuir 1:1 fit"}},
  "note": "Where two headings read alike, the source gives them in different places.",
  "data": [
    {"binder": "Antibody 5B6 (antibody, V domains shown, also called clone 5B6) VH: SQSVEESGGRLVTPGTPLTLTCTASGFSLSSYYMSWVRQAPGKGLEWIGVMTAGGSTFYASWAKGRFTISKTSTTVDLKITSPTTEDTATYFCARSIDTNYGSSIWGPGTLVTVSL VL: DVVMTQTPASMSEPVGGTVTIKCQASEDIYTYLSWYQQQSGQPPKVLIYAASNLASGVSSRFKGSRSGTEYTLTISDLECADAATYYCQGDYYGSNYGLGTFGGGTEVVVK", "values": [
      {"measurement": "Kd", "setting": "[1]", "value": 0.7, "unit": "nM"},
      {"measurement": "MR (molar ratio)", "setting": "[2]", "value": 1.7},
      {"measurement": "koff", "setting": "[2]", "value": 0.00012, "unit": "s⁻¹"},
      {"measurement": "kon", "setting": "[2]", "value": 180000, "unit": "M⁻¹ s⁻¹"},
      {"measurement": "t1/2 diss", "setting": "[2]", "value": 1.55, "unit": "h"},
      {"measurement": "MR (molar ratio)", "setting": "[3]", "value": 1.7},
      {"measurement": "koff", "setting": "[3]", "value": 0.00012, "unit": "s⁻¹"},
      {"measurement": "kon", "setting": "[3]", "value": 180000, "unit": "M⁻¹ s⁻¹"},
      {"measurement": "t1/2 diss", "setting": "[3]", "value": 1.55, "unit": "h"}
    ]},
    {"binder": "Antibody 1.1.32 (antibody, V domains shown, also called M-1.1.32; clone 1.1.32) VH: EVQLQQSGPELVKPGASVKMSCKASGYTFTTYVMHWVKQKPGQGLEWIGYSDPYNGDSKDNENFKGKATLTSDKSSSTVYMELSSLTSEDSAVYYCARGFGNYLFYFDYWGQGTTLTVSS VL: DIQMTQTTSSLSASLGDRVTISCSASQDIRDYLNWYQQKPDGTVKLLIYYTSNLHSGVPSRFSGSGSGTDYSLTISNLEPEDIATYFCQQYSKLPYTFGGGTKLEIK", "values": [
      {"measurement": "Kd", "setting": "[1]", "value": 0.06, "unit": "nM"},
      {"measurement": "koff", "setting": "[1]", "value": "2e-05", "unit": "s⁻¹"},
      {"measurement": "Kd", "setting": "[2]", "value": 0.059, "unit": "nM"},
      {"measurement": "MR (molar ratio)", "setting": "[2]", "value": 0.9},
      {"measurement": "kon", "setting": "[2]", "value": 340000, "unit": "M⁻¹ s⁻¹"},
      {"measurement": "t1/2 diss", "setting": "[2]", "value": 9.65, "unit": "h"},
      {"measurement": "Kd", "setting": "[3]", "value": 0.059, "unit": "nM"},
      {"measurement": "MR (molar ratio)", "setting": "[3]", "value": 0.9},
      {"measurement": "kon", "setting": "[3]", "value": 340000, "unit": "M⁻¹ s⁻¹"},
      {"measurement": "t1/2 diss", "setting": "[3]", "value": 9.65, "unit": "h"}
    ]},
    {"binder": "Antibody 1G9 (antibody, V domains shown, also called clone 1G9) VH: SQSVEESGGRLVTPGTPLTLTCTVSGFSLSTYAVNWVRQAPGKGLEWIGVIDGSGSTYYANWAKGRFTISKASTTVDLKITSPTTEDTATYFCARGAGTDNFGNLNLWGPGTLVTVSS VL: DVVMTQTPASVEVAVGGTVTIKCQASESISSWLAWYQQKPGQPPKLLIYRASTLASGVPSRFKGSGSGTEYTLTISGVECADAATYYCQQDYSTSNIDNTFGGGTEVVVK", "values": [
      {"measurement": "Kd", "setting": "[1]", "value": 1.2, "unit": "nM"},
      {"measurement": "MR (molar ratio)", "setting": "[2]", "value": 1.2},
      {"measurement": "koff", "setting": "[2]", "value": 0.00024, "unit": "s⁻¹"},
      {"measurement": "kon", "setting": "[2]", "value": 200000, "unit": "M⁻¹ s⁻¹"},
      {"measurement": "t1/2 diss", "setting": "[2]", "value": 0.8, "unit": "h"},
      {"measurement": "MR (molar ratio)", "setting": "[3]", "value": 1.2},
      {"measurement": "koff", "setting": "[3]", "value": 0.00024, "unit": "s⁻¹"},
      {"measurement": "kon", "setting": "[3]", "value": 200000, "unit": "M⁻¹ s⁻¹"},
      {"measurement": "t1/2 diss", "setting": "[3]", "value": 0.8, "unit": "h"}
    ]}
  ]
}
